Test results taken from paper PMC9759587.

Key:
[1] = target: IgG1 Fc^E382R (human); test: crystal structure; EndoS^D233A/E235L and IgG1 Fc^E382R combined 1:1, complex purified by SEC, exchanged into 50 mM HEPES, 150 mM KCl pH 7.5; crystals in Morpheus condition (0.09 M halogens, buffer system 2 pH 7.5, 37.5 % precipitant mix 4); space group P2_(1)2_(1)2_(1), 3.45 Å
[2] = target: IgG1 Fc^E382A (human); test: crystal structure; IdeS^C94A and IgG1 Fc^E382A combined 1:1, complex purified by SEC, exchanged into 50 mM HEPES, 150 mM KCl pH 7.5; crystals in Morpheus condition (0.12 M monosaccharides mix, buffer system 3 pH 8.5, 30 % precipitant mix 1); space group C121, twinned data, 2.34 Å

Substance | stoichiometry N (EndoS per IgG1 Fc molecule) [1] | stoichiometry N [2] [IdeS per Fc]
EndoS^D233A/E235L (truncated EndoS, residues 98-995) (from UniProt Q99Y92 98-995) (enzyme) | 2 | 
IdeS^C94A (IdeS from Streptococcus pyogenes strain MGAS15252, Mac-2 variant, amino acids 41-339) (enzyme) |  | 1
